Source: article PMC6224603, “Membrane association and remodeling by intraflagellar transport protein IFT172” (Nature Communications, 2018)

Biological target: T1, Chlamydomonas IFT172 (intraflagellar transport protein 172), recombinant full-length, C-terminal His-tag (Chlamydomonas reinhardtii, UniProt Q5DM57 1-1755)
T1 construct: Gene synthesised or sub-cloned into MCS2 of the pFL vector; no removal of the His-tag is described; The detergent-free monomer was used in the liposome sedimentation assays; also called IFT172-His tag; IFT172 monomer; source: HighFive insect cells (baculovirus), purified (His60 Ni Resin, SEC on Superose 6; with 0.1% DDM for the monomer, or with HiTrapQ-Sepharose anion exchange for the …)
Assay: co-sedimentation; liposome co-sedimentation: IFT172 with Folch fraction I MLV and rising amounts of IFT57; 20 mM Hepes, 150 mM NaCl, pH 7.5, 15 min on ice, 135,000 xg for 20 min, supernatant and pellet by SDS-PAGE; binding of IFT57 to IFT172 is read from the loss of IFT172 from the liposome pellet
Conditions: both partners purified

T1 sequence (Q5DM57 whole entry): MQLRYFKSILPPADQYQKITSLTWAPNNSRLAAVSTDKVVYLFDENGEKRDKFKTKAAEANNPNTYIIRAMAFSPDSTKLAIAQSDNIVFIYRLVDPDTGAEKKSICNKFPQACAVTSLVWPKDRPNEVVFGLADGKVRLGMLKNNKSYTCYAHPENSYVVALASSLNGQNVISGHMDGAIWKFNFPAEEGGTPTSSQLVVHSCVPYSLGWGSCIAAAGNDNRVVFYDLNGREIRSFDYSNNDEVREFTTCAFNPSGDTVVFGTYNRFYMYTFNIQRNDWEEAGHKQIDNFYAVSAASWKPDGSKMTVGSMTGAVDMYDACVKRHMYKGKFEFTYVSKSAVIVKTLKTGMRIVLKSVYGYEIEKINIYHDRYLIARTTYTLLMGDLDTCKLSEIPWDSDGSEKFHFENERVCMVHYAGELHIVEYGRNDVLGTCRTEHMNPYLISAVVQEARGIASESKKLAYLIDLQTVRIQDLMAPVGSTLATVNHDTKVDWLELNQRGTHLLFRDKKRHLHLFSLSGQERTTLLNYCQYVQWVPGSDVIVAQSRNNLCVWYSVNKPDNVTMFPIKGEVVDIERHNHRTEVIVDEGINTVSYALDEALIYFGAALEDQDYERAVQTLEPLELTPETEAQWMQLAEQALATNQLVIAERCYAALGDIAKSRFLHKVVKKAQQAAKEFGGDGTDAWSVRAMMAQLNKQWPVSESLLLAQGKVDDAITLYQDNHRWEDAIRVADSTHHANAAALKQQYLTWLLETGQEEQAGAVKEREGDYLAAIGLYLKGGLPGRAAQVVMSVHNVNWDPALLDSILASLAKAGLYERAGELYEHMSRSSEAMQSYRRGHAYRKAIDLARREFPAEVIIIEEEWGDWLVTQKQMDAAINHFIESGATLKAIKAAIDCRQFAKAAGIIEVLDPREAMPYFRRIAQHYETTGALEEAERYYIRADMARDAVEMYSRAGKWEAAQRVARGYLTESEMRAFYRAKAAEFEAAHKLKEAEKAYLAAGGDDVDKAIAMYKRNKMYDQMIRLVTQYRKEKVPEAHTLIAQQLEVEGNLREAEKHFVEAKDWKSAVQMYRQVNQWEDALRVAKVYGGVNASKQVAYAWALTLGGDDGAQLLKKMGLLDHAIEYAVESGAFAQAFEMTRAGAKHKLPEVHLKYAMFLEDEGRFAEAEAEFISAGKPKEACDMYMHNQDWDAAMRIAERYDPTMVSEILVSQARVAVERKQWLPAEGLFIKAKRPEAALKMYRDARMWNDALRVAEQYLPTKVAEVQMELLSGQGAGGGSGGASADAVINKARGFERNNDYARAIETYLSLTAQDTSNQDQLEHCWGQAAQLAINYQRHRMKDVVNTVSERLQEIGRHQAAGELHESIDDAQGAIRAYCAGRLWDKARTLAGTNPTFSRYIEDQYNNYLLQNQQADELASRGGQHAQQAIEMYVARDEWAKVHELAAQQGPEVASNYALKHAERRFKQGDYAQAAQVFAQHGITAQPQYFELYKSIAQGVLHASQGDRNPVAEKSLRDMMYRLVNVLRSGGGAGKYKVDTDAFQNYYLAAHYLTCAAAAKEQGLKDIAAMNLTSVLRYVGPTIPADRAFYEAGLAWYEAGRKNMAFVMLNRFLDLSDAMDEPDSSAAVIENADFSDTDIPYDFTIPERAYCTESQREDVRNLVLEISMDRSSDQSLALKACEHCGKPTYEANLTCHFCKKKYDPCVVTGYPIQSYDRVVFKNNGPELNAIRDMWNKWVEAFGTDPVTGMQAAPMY

- binding result: binds
B1: Chlamydomonas IFT57 (intraflagellar transport protein 57), full-length (natural protein, UniProt Q2XQY7 1-469, looked up)
chain: MSSKRGGRSSLAKAPEEAVNGEAFAPEASPPPPGDDGDAGGEDGGAPAPPPPPATKGGPVAVGRSLEIQTTPDVCMEMLADKLKLLNYEADFCRKKKPYRKPLSRLYFAVPLANSSEQFFYFTSLATWLLGLAGVELPAPKEFDDPNLTCQNILGAVKKLGFAPPSYHPTKLTVGNGKEVVGVLDGLVDFVLERRHHKYSRPAYGNDGQPEEGVQLDDEAEAAAMEGADELAMPAQNQADDDEEEEGVYVDPGRGDAAGPGTGASAAMDAEKAVLVSKVDPTLWKIELERVAPKLRITIAADSKDWRSHLDEAHQHKEVISKAWPDSKTSLERLRADLNGTLEKLQTREKFLNEQFESLMQQYRAARTTFTDVQETYNRKTEAVADRNQEMHRIGETLEEVKAMMDEKGSNIADATPVARIKTAIKQLNKELHDMEVRIGVVSHTLLQLSLRNKRLLQAQAALSDEEED
notes: IFT57 from Chlamydomonas, full length, cloned into the pEC vector; source: E. coli BL21 (DE3), purified (Ni-NTA, TEV cleavage, HiTrapQ-Sepharose, SEC); not shown: His tag, N-terminal, cleaved
